In the DeepSol protein solubility set:

Assay: soluble on expression in E. coli; label from the status in PepcDB or PDB records

Row | Sequence | soluble on expression in E. coli
1 | MKKQHDTIIVLDFGSQYNQLIARRIREFGVYSELHPHTITAEEIKAMNPKGIIFSGGPNSVYGEGALHCDEKIFDLGLPIFGICYGMQLMTQQFGGTVERANHREYGKAVLKVENESKLYANLPEEQVVWMSHGDLVTGLPEGFVVDATSESCPIAGMSNEAKNLYGVQFHPEVRHSEHGNDLIKNFVFGVCGCSEGWNMENFIEVELEKIRETVGDKKVLCALSGGVDSSVVAVLIHKAIGDQLTCIFVDHGLLRKGEAEGVMKTFSEGFHMNVIKVDAKERFMNKLKGVEDPEQKRKIIGNEFIYVFDDEASKLEGMDFLAQGTLYTDIVESGTATAQTIKSHHNVGGLPEDMQFKLIEPLNTLFKDEVRVLGSELGIPDEIVWRQPFPGPGLGIRVLGEITEEKLEIVRESDAILREEIIKAGLDREIWQYFTALPGMRSVGVMGDERTYDYTVGIRAVTSIDGMTADWARIPWDVLEKISVRIVNEVKHVNRIVYDVTSKPPATIEWE | not soluble
2 | GSLNITENESISTAVIDAINSGATLKDINAIPDDMMDDIYSYAYDFYNKGRIEEAEVFFRFLCIYDFYNVDYIMGLAAIYQIKEQFQQAADLYAVAFALGKNDYTPVFHTGQCQLRLKAPLKAKECFELVIQHSNDEKLKIKAQSYLDAIQ | soluble
3 | DIGCYTLGINKPLEGVDITICMGASVGVSNGLAHVLNNKIIATIGDSTFIHAGIPPLINAVYNHADFVLVILDNSTTGMTGHQPHPGTGFRGCGEAGKAVRIEDIVRGCGVEFVEVVNPYNVRKMVDVLRRALNHDGVAVVIARQPCAILWSRARRREGKIVTYKVTEDC | not soluble
4 | MQERHTEQDYRALLIADTPIIDVRAPIEFEQGAMPAAINLPLMDNDERASVGTCYKQQGSDAALALGHKLVAGEIRQQRMYAWRAACLQNPQGILCCARGGQRSHIVQRWLHEAGIDYPLVEGGYKALRQTAIQATIELAQKPIVLIGGCTGSGKTLLVQQQPNGVDLEGLARHRGSAFGRTLQPQLSQASFENLLAAEMLKTDARQDLRLWVLEDESRMIGSNHLPECLRERMTQAAIAVVEDPFEIRLERLNEEYFLRMHHDFTHAYGDEQGWQEYCEYLHHGLSAIKRRLGLQRYNELAAQLDTALTTQLTTGSTDGHLAWLVPLLKEYYDPMYRYQLEKKAEKVVFRGEWAEVAVWVKAQLEHHHHHH | not soluble
5 | MGHHHHHHSHMHPWNQQVPDKESGGGSHGNAASSCSRFHYSYAGVHSESTHFSLVLLLDWAMAFILCPLTCPGECEGSTGKLECCLCLPSQWAVLTAAPHPYRWSQEAGRVGEGKIGKTGRPRPRQNSLPSLHFWSPVVMCL | not soluble
6 | MGSDKIHHHHHHVDDNALPVEETFKDIDLANNLKDCGKPLLLSDIVKDVEYVKLETQDNILVGDIKQLKRTEKFVFIYSRNQRHVMMFDTSGKFIRKIGHVGQGPGEIANIHCFTVSDSLVFIYPFSRNGSLTVYDMRDNSFVKEFSLKWPVFFSWTIDVMGDCLVYYPGTVYLPDNSKTFISACVANGKGETLMEQIPYLSSGDKEIVQLSSDPSWLYRGRSNVYSFINDTIYGITCDSIFPRYHLSLGKYKLPSGRYDPTHDYGWGDFVLMQSVYETKEFLFLELGTLL | not soluble
7 | MISTNGITMQFGAKPLFENVSVKFGEGNRYGLIGANGSGKSTFMKILGGDLEQTAGEVAIENGVRLGKLRQDQFAYEDMRVLDVVMMGHTEMWAAMTERDAIYANPEATEDDYMKAAELEAKFAEYDGYTAEARAAELLSGVGISEDLHNAKMAEVAPGFKLRVLLAQALFSKPDVLLLDEPTNNLDINTIRWLEGVLNQYDSTMIIISHDRHFLNEVCTHMADLDYNTITIYPGNYDDYMLASAQSRERALKDNAKAKEKLQELQEFVARFSANKSKARQATSRLKQADKIKSEMVEVKPSTRQNPYIRFEADEKAKLHRQAVEVEKLAKRFETQLFKNLNFILEAGQRLAIIGPNGAGKSTLLKLLAGAYNPEYSDGLLPDEGTIKWAEKASVGYYPQDHENDFDVDMDLSEWMRQWGQEGDDEQVIRGTLGRLLFGSNDVVKKVKVLSGGEKGRMLYGKLLLLKPNVLVMDEPTNHMDMESIESLNMALEKYNGTLIFVSHDRQFVSSLATQIIELDGKGGYEHYLGDYESYLEKKGVA | not soluble
8 | MQTEHVILLNAQGVPTGTLEKYAAHTADTRLHLAFSSWLFNAKGQLLVTRRALSKKAWPGVWTNSVCGHPQLGESNEDAVIRRCRYELGVEITPPESIYPDFRARATDPSGIVENEVCPVFAARTTSALQINDDEVMDYQWCDLADVLHGIDATPWAFSPWMVMQATNREARKRLSAFTQLKLEHHHHHH | soluble
9 | MGTHMYSEQGINNTINISTTSLTNATQLTVIGNNNSVYIGNNCKIVSSNIRLKGNNITLFIADDVEIMGLVCSLHSDCSLQIQAKTTMGNGEITIAEKGKISIGKDCMLAHGYEIRNTDMHPIYSLENGERINHGKDVIIGNHVWLGRNVTILKGVCIPNNVVVGSHTVLYKSFKEPNCVIAGSPAKIVKENIVWGRKMYHSTMYDDPTLNEFYK | soluble
10 | MGSDKIHHHHHHMSQINASASGTYAFDDQFKVNRLGYGTMQLTGEGTWGPYDDPNNAVSVIKKAVDLGINFFDTADSYGPWFADRYLAEGLKSASNRDEIFISDKVGQTRQGPGVWTPHGEPNYLRQQVEVSLMTLGIDHEDLLFLHRIDSHFSVAEQVGELKKLQDEGKIKHIGLSQVTVGQIKEAQKYAKIDAVENLYNVSDHRDDDVLDYAESQHMAFVPWFPLNTEKLTGANSPLAKIANKYKASPAQIALAWLLKRSGNVLPIPGTSSVAHLEDNVAAASIKLSDDDFKAITNLGVSNR | not soluble
11 | MGSDKIHHHHHHMLSTGLYEDFPTLKMKINGKRIVYLDSAATTLKPKQVVKKLEEFYYNSYANVHRAVHTLAVRATTEFEETREEFAEFLGASPEEIIFTSGTTMAINLAVVSLLRSGILKEDDLVLVSLLEHHANFVPWLRLSKFHGYRIDFIRPSGRFGTLEMDDLLKHRDKNPKVVAITGLSNVTGQRIPVEELRNVFPNSIILLDGAQLIPHEPVKPKEIGVDFLAFSLHKMLGPTGVGVLYGKREVLEQMEPFLYGGEMIDRVSLEDVTFNELPYKFEAGTPNIADIVASREALRYLKETGFDSVHEKIEQLTQMALKEMMKIGGVEIYGPLDERQHGIVSFNVKGIHPHDVAHILDQEFGIAVRSGHHCAQPLMSILKEQSQIDFPNSTCRASFYIYNTEEDVKILVEGVKKVKEWFSR | not soluble
12 | MSLFFGFTSCLDICPSTLTILGQAEKHRENLPETQRPQVLFVSINPDRDSPLRLSGYARAFHKNILTTTADTPALQRFATALGLRFRKVPGKSYAENPLDDTMDHPTAIVVLDPQGHHVGMIHPPFNAEEIPTDLQKLTKEITEGHHHHHH | not soluble
13 | MSLKHTRPSIVNKRIDGRLTMSDNSKTRVVVGMSGGVDSSVTALLLKEQGYDVIGIFMKNWDDTDENGVCTATEDYKDVVAVADQIGIPYYSVNFEKEYWDRVFEYFLAEYRAGRTPNPDVMCNKEIKFKAFLDYAMTLGADYVATGHYARVARDEDGTVHMLRGVDNGKDQTYFLSQLSQEQLQKTMFPLGHLKKPEVRKLAEEAGLSTAKKKDSTGICFIGEKNFKNFLSNYLPAQPGRMMTVDGRDMGEHAGLMYYTIGQRGGLGIGGQHGGDNAPWFVVGKDLSKNILYVGQGFYHDSLMSTSLEASQVHFTREMPEEFTLECTAKFRYRQPDSKVTVHVKGDKAEVIFAEPQRAITPGQAVVFYDGEECLGGGLIDNAYRDGQVCQYIEGHHHHHH | soluble
14 | GPGSMKVGNRDYDPCVKVSLELESLLQHHFQQRQHSKRILKDRLRKAELEIAYLQQSVSAYSEELRVERLKFDTLQRTMEDSKRNHAAELMEQDKIIRDRMCNVDTQARLLVVKTEECERRAQCLQKQEEELLNREKELRFYQASFEAGIMPAQRQIEAERVRMLRAREKAEELLEEARISALATEERRKKLEALHNLEMQFFALEKEEATQRIQIMRQEIFGLVGLISFRRTHVSAAEGDAAKRIRLLEEELASKKEVFELREKEVYLRYQREEQRMRDERKRIISIKEAMRQDYRLVLEGIRLFGNEYSTEPDQLQVDALKDLEKLLFSALDDHQLEITKKL | soluble
15 | MTKLGLGLSGDLGAQEIVRMLDLQPHPEGGWYRQTFQDAPGPDGRAASTCIYYLLEAEQMSAWHRVDAVETWHYYAGAPISLTLSPPDGKGASAYVLGPDLRAGCRPQVIVPTLWWQTAVSLGAWTLVGCTVAPGFRFEGFEMAPPDWTPSTGLEHHHHHH | soluble
16 | SLLGMNFAMHTTIDTKLVLFGPSENLVTEDDDARNMASKLIENGIITTACINYVKDKPAESKLREMRIVLEPVGKIISDYIKDGYVPVTF | not soluble
